# Measurements as given in article PMC12547741, “DUF-721 and N-terminal extension of the helicase loader DciA bind ssDNA to promote replicative DnaB helicase loading in Caulobacter crescentus”.
# B1: 80-mer oligo 1790 (ssDNA)
# DNA: TCCTTGTTATCCACAGGGCAGTTTTTTTTTTTTTTTTTTTTTTTTTTTTTTTTTTTTTTTTGTGCGATATAGTTCTCCGA
# Tests used:
# [1] = molecular target: ccDnaB-His (wild type) (Caulobacter crescentus); assay: SEC; ccDnaB-His alone on Superdex 200; 25 mM Tris-HCl pH 7.5, 300 mM NaCl, 20% glycerol, 0.1 mM ATP, 5 mM MgCl2; fractions by SDS-PAGE; hexamer
# ccDnaB-His (wild type) = assay: pull-down (Ni-conjugated magnetic beads), quantified from SDS-14% PAGE with Coomassie staining; details: sfTq2-DciA 850 nM, three independent reactions per legend, parent: est. 1.4, read off a plot
# [2] = molecular target: His-DciA R106A L119S (RL) (UniProt A0A0H3C5R2 1-179, R106A;L119S); assay: EMSA; 150 mM K-glutamate; EMSA: 20 mM Tris-HCl pH 7.5, 10 mM Mg acetate, 50 or 150 mM K-glutamate, 0.1 mg/ml BSA, 10% glycerol, 2 mM ATP, 12.5 nM DNA, 5 min on ice; M13 pull-down: Tris pH 7.5, 10 mM Mg acetate, 50 mM K-glutamate, 0.1 mM ATP, 0.1 mg/ml BSA, 30 C; details: protein: recombinant; tags: N-terminal His6; label: 5'-FAM
# Sequence of His-DciA R106A L119S (RL) (A0A0H3C5R2 entry or part of it R106A;L119S | R106A L119S R106A L119S): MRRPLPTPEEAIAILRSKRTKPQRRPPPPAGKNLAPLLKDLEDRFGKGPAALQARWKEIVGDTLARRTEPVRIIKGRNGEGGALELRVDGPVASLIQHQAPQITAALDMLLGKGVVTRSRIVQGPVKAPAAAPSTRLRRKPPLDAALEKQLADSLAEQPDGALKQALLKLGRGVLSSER
# His-DciA WT [3] = molecular target: T1, His-DciA WT (UniProt A0A0H3C5R2 1-179); assay: as above; details: protein: recombinant; tags: N-terminal His6; label: 5'-FAM
# T1 sequence (A0A0H3C5R2 entry or part of it): as the sequence (A0A0H3C5R2 entry or part of it R106A;L119S | R106A L119S R106A L119S) above, with A106R, S119L counted along it
# His-DciA del1-45 = His-DciA del1-45 (UniProt A0A0H3C5R2 46-179, del1-45); assay: as above; details: protein: recombinant; tags: N-terminal His6; label: 5'-FAM
# Sequence of His-DciA del1-45 (A0A0H3C5R2 entry or part of it del1-45): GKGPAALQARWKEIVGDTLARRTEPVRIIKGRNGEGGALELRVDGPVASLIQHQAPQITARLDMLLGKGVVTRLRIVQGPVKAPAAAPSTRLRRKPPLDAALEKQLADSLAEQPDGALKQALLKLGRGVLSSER
# His-DciA R106A [4] = molecular target: T2, His-DciA R106A (UniProt A0A0H3C5R2 1-179, R106A); assay: as above; details: protein: recombinant; tags: N-terminal His6; label: 5'-FAM
# T2 sequence (A0A0H3C5R2 entry or part of it R106A | R106A R106A): as the sequence (A0A0H3C5R2 entry or part of it R106A;L119S | R106A L119S R106A L119S) above, with S119L counted along it
# His-DciA WT [5] = molecular target: T1, His-DciA WT; assay: EMSA; 50 mM K-glutamate; EMSA: 20 mM Tris-HCl pH 7.5, 10 mM Mg acetate, 50 or 150 mM K-glutamate, 0.1 mg/ml BSA, 10% glycerol, 2 mM ATP, 12.5 nM DNA, 5 min on ice; M13 pull-down: Tris pH 7.5, 10 mM Mg acetate, 50 mM K-glutamate, 0.1 mM ATP, 0.1 mg/ml BSA, 30 C; details: protein: recombinant; tags: N-terminal His6; label: 5'-FAM
# His-DciA R106A [6] = molecular target: T2, His-DciA R106A; assay: as above; details: protein: recombinant; tags: N-terminal His6; label: 5'-FAM
# His-DciA 4A = His-DciA 4A (UniProt A0A0H3C5R2 1-179, H98A;Q99A;Q102A;R106A); assay: EMSA; 150 mM K-glutamate; EMSA: 20 mM Tris-HCl pH 7.5, 10 mM Mg acetate, 50 or 150 mM K-glutamate, 0.1 mg/ml BSA, 10% glycerol, 2 mM ATP, 12.5 nM DNA, 5 min on ice; M13 pull-down: Tris pH 7.5, 10 mM Mg acetate, 50 mM K-glutamate, 0.1 mM ATP, 0.1 mg/ml BSA, 30 C; details: protein: recombinant; tags: N-terminal His6; label: 5'-FAM
# Sequence of His-DciA 4A (A0A0H3C5R2 entry or part of it H98A;Q99A;Q102A;R106A): as the sequence (A0A0H3C5R2 entry or part of it R106A;L119S | R106A L119S R106A L119S) above, with H98A, Q99A, Q102A, S119L counted along it
# His-DciA L119S = His-DciA L119S (UniProt A0A0H3C5R2 1-179, L119S); assay: as above; details: protein: recombinant; tags: N-terminal His6; label: 5'-FAM
# Sequence of His-DciA L119S (A0A0H3C5R2 entry or part of it L119S | L119S L119S): as the sequence (A0A0H3C5R2 entry or part of it R106A;L119S | R106A L119S R106A L119S) above, with A106R counted along it
# His-DciA 4A2S = His-DciA 4A2S (UniProt A0A0H3C5R2 1-179, H98A;Q99A;Q102A;R106A;M109S;L110S); assay: as above; details: protein: recombinant; tags: N-terminal His6; label: 5'-FAM
# Sequence of His-DciA 4A2S (A0A0H3C5R2 entry or part of it H98A;Q99A;Q102A;R106A;M109S;L110S): as the sequence (A0A0H3C5R2 entry or part of it R106A;L119S | R106A L119S R106A L119S) above, with H98A, Q99A, Q102A, M109S, L110S, S119L counted along it
Molecule,stoichiometry N [1],response (ccDnaB-His (wild type)) [AU],Kd [2] [nM],Kd (His-DciA WT [3]) [nM],Kd (His-DciA del1-45) [nM],Kd (His-DciA R106A [4]) [nM],Kd (His-DciA WT [5]) [nM],Kd (His-DciA R106A [6]) [nM],Kd (His-DciA 4A) [nM],Kd (His-DciA L119S) [nM],Kd (His-DciA 4A2S) [nM]
ccDnaB-His (wild type) (enzyme),6,,,,,,,,,,
"superfolder mTurquoise2 fluorescent protein-tagged DciA (sfTq2-DciA), wild type R106A",,1.2,,,,,,,,,
TTTTTTTTTTTTTTTTTTTTTTTTTTTTTTTTTTT (ssDNA) [35-mer oligo 2201],,,665 ± 47.9,109 ± 21,520 ± 30.6,543 ± 9.95,19.6 ± 7.03,35.7 ± 17.6,,,
B1,,,115 ± 40.3,25.4 ± 8.4,115 ± 40.3,115 ± 40.3,49.7 ± 24.4,152 ± 75.4,115 ± 40.3,115 ± 40.3,115 ± 40.3
